From the nanobody polyreactivity screen of Harvey et al. (2022) come the findings set out here.

The series is described as follows: yeast display, Sf9 membrane polyspecificity reagent, FACS + sequencing; frameworks hold sequencing errors. In outline: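 Nanobodies came from a synthetic yeast display library in Saccharomyces cerevisiae BJ5465, induced with galactose for 36–48 hours and stained for 1 hour at 4 °C with 10% biotinylated, detergent-solubilized Sf9 membrane reagent. Cells were enriched on streptavidin microbeads and then FACS-sorted, with low and high (top ~1%) gates set on anti-HA fluorescence for expression and streptavidin fluorescence for reagent binding. Each polyreactivity label reflects the gate a clone came from. Genes were amplified by colony PCR, sequenced by MiSeq 2 × 250 and filtered by CDR length.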
Regarding “QVQLVESGGGLVQAGGSLRLSCAASGFTSRRYAMGWYRQAPGKERELVAAISWSGGSTYYADSVKGRFTISRDNAKNTVYLQMNSLKPEDTAVYYCAAKRYSSKRGLDYWGQGTQVTVSS”, the “polyreactivity (PSR sort gate)” value is reported as “high polyreactivity”.

As for “QVQLVESGGGLVQAGGSLRLSCAASGFTSSRNAMGWYLQAPGKEREWVATISSGGDTYYADSVKGRFTISRDNAKNTVYLQMNSLKPVDTAVYYCNKDPLYDWGYDYWGHGTQVTVSS”, the “polyreactivity (PSR sort gate)” value is recorded as “low polyreactivity”. For the sequence “QVQLVESGGGLVQAGGSLRLSCAASGFTSVDNAMGWYRQAPGNERELVAAIDTSGARTYYADSVKGRFTISRDNAKHTVYLQMNSLKPEDTAVYYCATEYVYDDRLYSTYYYWGQGTQVTVSS”, the “polyreactivity (PSR sort gate)” value is reported as “high polyreactivity”.

Regarding “QVQLVESGGGLVQAGGSLRLSCAASGFTSYDNAMGWYRPAPGKERELVAASTWDGGSTYYADSVKGRFTISRDNAKNTVDLQMNSLKPEDTAVYDCAADLADFYPRYNYWGQGTQVTVSS”, the “polyreactivity (PSR sort gate)” value is recorded as “low polyreactivity”. The result for “QVQLVESGGGLVQAGGSLRLSCAASGFTTNYYARGWYRQAPGKERELVAAITTGGSTHYADSVKGRFTISRDNAKNTVYLQMNSLKPEDTAVYYCAAGTNRQQQRYFHHGGYYQYNYWGQGTQVTVSS” reads “low polyreactivity”. With “QVQLVESGGGLVQAGGSLRLSCAASGFTYKYYAMGWYRQAPGKERELVAAIRRSAGSTNYADSVKGRFTISRDNAKNTVYLQMNSLKPEDTAVYYCNTVGTRQPMDYWGQGTQVTVSS”, the “polyreactivity (PSR sort gate)” value is “high polyreactivity”. The result for “QVQLVESGGGLVQAGGSLRLSCAASGFTYKYYVMGWYRQAPGKERELVASISKRGGSTRYADSVKGRFTISRDYAKNTVYLQMNSLKPEDNAVYYCAAAFVRRPPYVGYSRFDYWGQGTQVTVSS” reads “high polyreactivity”. The result for “QVQLVESGGGLVQAGGSLRLSCAASGFTYRWYAMGWYRQAPGKETELVAAISWDGGSTYYADSVKGRFTISRDNAKNTVYLQMNSLKPEDTAVYFCATVKSLRYWWQNEYGYWGQGTQVTVSS” reads “high polyreactivity”; that for “QVQLVESGGGLVQAGGSLRLSCAASGFTYRYYAMGWYRQSPGKERELVAAISSGGNTRYADSVKGRFTISRDNAKNTVYLQMTSLKPEDTAVYYCARRPGDWKYVYTGDYWGQGTQVTVSS”, “high polyreactivity”.

Consider “QVQLVESGGGLVQAGGSLRLSCAASGFTYYHNAMGWYRQAPGKERELVAAISSSGDSTYYADSVKGRFTISRDNAKNTVYLQMKSLKPEDTAVYYCNDYFYYLSLYYYYWFNYDYWGQGTQVTVSS”, for which the “polyreactivity (PSR sort gate)” value is “low polyreactivity”.

Turning to “QVQLVESGGGLVQAGGSLRLSCAASGGIFAPNAMGWYRQAPGKEREFVAAISTGGGSTRYADSVKGRFTISRDNAKNTVYLQMNSLKPEDTAVYYCAAELWYTWLGSPYDYWGQGTQVTVSS”, the “polyreactivity (PSR sort gate)” value was “low polyreactivity”. In the case of “QVQLVESGGGLVQAGGSLRLSCAASGGIFAYNVMGWYRQAPGKERELVAAISSAGSTYYADSVKGRFTISRDNAKNTVYLQMNSLKPEDTAVYYCAVRIGLKYDYWGQGTQVTVSS”, the “polyreactivity (PSR sort gate)” value was “low polyreactivity”. “QVQLVESGGGLVQAGGSLRLSCAASGGIFDGNAMGWYRQAPGKERELVAAISSGGITKYADSVKGRFTISRDNAKNTVYLQKNSLKPEDTAVYYCAASWYRYRFIRYDYWGQGTQVTVSS”: the “polyreactivity (PSR sort gate)” value is listed as “high polyreactivity”. Take “QVQLVESGGGLVQAGGSLRLSCAASGGIFDGYAMGWYRQAPGKERELVAAINYSVDRTYYADSVKGRFTISRDNAKNTVYLQMNSLKPVDTAVYYCATVPRYVRFGYGYWGQGTQVTVSS”: the “polyreactivity (PSR sort gate)” value is “high polyreactivity”. Take “QVQLVESGGGLVQAGGSLRLSCAASGGIFDSYAMGWYRQAPGKERELVAAISRSGSTNYADSVKGRFTISRDNAKNTVYLQMYSLKPEDTAVYYCAASVRGIRYDYWGQGTQVTVSS”: the “polyreactivity (PSR sort gate)” value was “low polyreactivity”.

Consider “QVQLVESGGGLVQAGGSLRLSCAASGGIFDSYAMGWYRQAPGKERELVADITWSGGSTYYADSVKGRFTISRDNAKNTVYLQMNSLKPEDTAVYYCAADDGSQYYFDSPHEYDYWGQGTQVTVSS”, for which the “polyreactivity (PSR sort gate)” value is recorded as “low polyreactivity”. For “QVQLVESGGGLVQAGGSLRLSCAASGGIFDTYAMGWYRQAPGKERELVAAISSTGGSTYYADSVKGRFTISRDNAKNTVYLQMNSLKPEDTAVYYCNAVLARFWRYRRWEYDYWGQGTQVTLSS”, the “polyreactivity (PSR sort gate)” value is reported as “high polyreactivity”. To “QVQLVESGGGLVQAGGSLRLSCAASGGIFDYYAMGWYRQAPGKERELVAAISSSGGSTYYADSVKGRFTISRDNAKNTVYLQMNSLKPEDTAVYYCNADRRRRFGYWGQGTQVTVSS” belongs “high polyreactivity”; to “QVQLVESGGGLVQAGGSLRLSCAASGGIFFINAMGWYRQAPGKERELVAAISISDGSTYYADSVKGRFTISRDNAKNTVYLQMNSLKPEDTAVYYCAAEGFDWDSPEMEYWGQGTQVTVSS”, “low polyreactivity”. The result for “QVQLVESGGGLVQAGGSLRLSCAASGGIFGGYAMGWYRQAPGKEGELVAVITSGGSTYYADSVKGRFTISRDNAKNTVYLQMNSLKPEDTAVYYCAADGNSYSYSTYDYWGQGTQVTLSS” reads “low polyreactivity”; that for “QVQLVESGGGLVQAGGSLRLSCAASGGIFGTNDLGWSRQAPGKERELVAAITSDSGSTYYADSVKGRFTISRDNAKNTVYLQMTSLKPEDTAVYYCAAEDGPWFYRYGYWGQGTQVTVSS”, “low polyreactivity”; that for “QVQLVESGGGLVQAGGSLRLSCAASGGIFGTYAMGWYRQAPGKEREFVAAITSGDSTYYADSVKGRFTISRDNAKNTVYLQMNSLKPEDTAVYYCAVGSTDRVSAQGSYFTYDYWGQGTQVTVSS”, “low polyreactivity”.

“QVQLVESGGGLVQAGGSLRLSCAASGGIFGTYTMGGYRQSPGKEREFVAAIRSSSGRTYYADSVKGRFTISRDNAKNTVYLQMNSLKPEVTAVYYCNAKYYGYRVGKYYPFGYWGQGTQVTVSS”: the “polyreactivity (PSR sort gate)” value was “high polyreactivity”.

“QVQLVESGGGLVQAGGSLRLSCAASGGIFGYNAMGWYRQAPGKERELVAAISRGTTTNYADSVKGRFTISRDNAKNTVYLQMNSLKPEDTAVYYCAADQPSKRYYYWGQGTQVTVSS”: the “polyreactivity (PSR sort gate)” value was “low polyreactivity”. On to “QVQLVESGGGLVQAGGSLRLSCAASGGIFGYYAMGWYRQAPGKERELVAAISYSGGSTYADSVKGRFTISRDNAKNTVYLQMNSLKPEDTAVFYCAARVSSVTRSGFGYWGQGTQVTVSS”, for which the “polyreactivity (PSR sort gate)” value is “high polyreactivity”. To “QVQLVESGGGLVQAGGSLRLSCAASGGIFISYAMGWYRQAPGKERELVAAITSSGGSTYYADSVKGRFTISRDNAKNTVYLQMNSLKPEVTAVYYCNTDRVPVKVSPLYESWGQGTQVTVSS” belongs “low polyreactivity”; to “QVQLVESGGGLVQAGGSLRLSCAASGGIFKYYAMGWSRQAPGTERELVAAITSGGNTNYAESVKGRFTISRDNAKNTVYLQMNSQKPEDTAVYYCSARSISRRTWQYNYWGQGTQVTVSS”, “high polyreactivity”; to “QVQLVESGGGLVQAGGSLRLSCAASGGIFLKYAMAWYRQAPGKERELVASINTGVRTYYADSVKGRFTISRDNAKNTVYLQMNSLKPEDTAVYYCYADGGGPRKYTRTRGHWGQGTQVTVSS”, “low polyreactivity”. The result for “QVQLVESGGGLVQAGGSLRLSCAASGGIFLRYSMGWYRQAPGKERELVAAITANGGSTYYADSVKGRFTISRDNAKNTVYLQMISMKPEDTAVYYCNADSFPALNKRGYDYWGQVTQVTVSS” reads “low polyreactivity”; that for “QVQLVESGGGLVQAGGSLRLSCAASGGIFNYYAMGWYRQAPGKERELVAAISASGGSTYYADSVKGRFTISRDNAKNTVYLQMNSLKPEDTAVYYCAAGLPYGYGYDYWGQGTQVTVSS”, “low polyreactivity”.

As to “QVQLVESGGGLVQAGGSLRLSCAASGGIFPAYAMGWYRQAPGKERELVAAITSSGASTYADSVKGRFTISRDNAKNTVYLQMNSLKPEDTAVYYCNADDTTVILEMDYWGQGTQVTVSS”, the “polyreactivity (PSR sort gate)” value is listed as “low polyreactivity”. As to “QVQLVESGGGLVQAGGSLRLSCAASGGIFRGNAMGWYRQAPGKERELVAAISSSGGSTYYADSVKVRFTISRDNSKYTVYLEMYSLKPEDTAVYYCAAYAGSFYYWGQGTQVTVSS”, the “polyreactivity (PSR sort gate)” value is on record as “high polyreactivity”. To “QVQLVESGGGLVQAGGSLRLSCAASGGIFRSYAMGWYRQAPGKERELVAAINYSGGSTYYADSVKGRFTISRDNAKNSVYLQMNSLKPEDTAVYYCASDGYIRQYVTYYYWGQGTQVTVSS” belongs “low polyreactivity”; to “QVQLVESGGGLVQAGGSLRLSCAASGGIFSWYDMGWYRQAPGKEREFVATITYSGGSTYYADSVKGRFTISRDNAKNTVYLQMNSLKPEDTAVYYCAAARYWYRRFDYWGQGTQVTVSS”, “high polyreactivity”; to “QVQLVESGGGLVQAGGSLRLSCAASGGIFSYNAMGWYIQAPGKERELVATISYSGGSTFYADSVKGRFTISRHNAKNTVYFQMNSLKPEDTAVYYCARPSYTSGYQSYDYWGQGTQVTVSS”, “low polyreactivity”. Consider “QVQLVESGGGLVQAGGSLRLSCAASGGIFTGYAMGWYRQAPGKERELVAAISSGGTTYYADSVKGRFTISRDNAKITVHLQMNSLKPEDTAVYYCAAGFYLRAVWMDYWGQGTQVTVSS”, for which the “polyreactivity (PSR sort gate)” value was “high polyreactivity”.

For the sequence “QVQLVESGGGLVQAGGSLRLSCAASGGIFTLNGMGWYRQAPGKERELVAVITSSGGSTYYADSVKGRFTISRDNAKNTVYLQMNSLKPEDTAVYYCAAQLVRYVGYYRFDYWGQGTQVTVSS”, the “polyreactivity (PSR sort gate)” value is “low polyreactivity”. For the sequence “QVQLVESGGGLVQAGGSLRLSCAASGGIFTYYAMGWYRQAPGKERELVAAISASGGSTYYADSVKGRFTISRDNAKNTVYLQMNSLKPEDTAVYYCAAGLPYGYGYDYWGQGTQVTVSS”, the “polyreactivity (PSR sort gate)” value is “low polyreactivity”. Regarding “QVQLVESGGGLVQAGGSLRLSCAASGGIFTYYVLGWYRQAPGKERELVAAITIGDSTYYADSVKGRFTISRDNAKNTVYVQINSLKPEDTAVYYCNADPYNTWGFTNGYWGQGTQVTVSS”, the “polyreactivity (PSR sort gate)” value is “low polyreactivity”. “QVQLVESGGGLVQAGGSLRLSCAASGGIFVTYAMVWYRQAPGKERELVAAITSGGTTYYADSVKGRFTISRDNAKNTVYIQMNSLTPEDTAVYYCAARYYPGYYYPPLDYWGQGSQVTVSS”: the “polyreactivity (PSR sort gate)” value is “low polyreactivity”. The result for “QVQLVESGGGLVQAGGSLRLSCAASGGIFWRYAMGWYRQAPGKERELVAAISSRGGSTYYADSVKGRFTISRDNAKNTVYLPMNSLKPEYTAVYYCAAAFLSRVQGYDSWGQGTQVTVSS” reads “high polyreactivity”.
